These are literature values, as cited in patent US20150246140A1, “COMPOSITIONS AND METHODS FOR MODULATING SLEEP AND WAKEFULNESS” (California Institute of Technology, priority 2014, published 2015).

Data set [1] has as its target T1, NPR-22 (Caenorhabditis elegans, UniProt Q59E83).
T1 sequence (Q59E83 1-434): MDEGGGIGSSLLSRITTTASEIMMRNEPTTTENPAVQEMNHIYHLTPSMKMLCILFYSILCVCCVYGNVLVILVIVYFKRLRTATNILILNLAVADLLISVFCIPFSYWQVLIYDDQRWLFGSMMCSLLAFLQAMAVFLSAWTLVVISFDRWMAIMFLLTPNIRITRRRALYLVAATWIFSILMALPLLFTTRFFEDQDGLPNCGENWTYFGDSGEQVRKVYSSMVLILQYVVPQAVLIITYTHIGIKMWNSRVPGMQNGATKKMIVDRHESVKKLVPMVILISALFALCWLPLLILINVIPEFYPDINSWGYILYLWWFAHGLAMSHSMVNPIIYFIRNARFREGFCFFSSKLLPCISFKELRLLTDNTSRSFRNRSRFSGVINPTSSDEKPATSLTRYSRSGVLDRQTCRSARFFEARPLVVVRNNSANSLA
As to conditions: FLP-13 peptides P1-P9, FIG. 6 legend.

In data set [2] the test system is A. suum muscle strips. As to conditions: FLP-13 peptides P1-P9, FIG. 6 legend.

As for “AADGAPLIRF [C. elegans RFamide peptide of gene flp-13; P2 and P4 are repeated copies]”, the “activate calcium response via NPR-22 using the fluorescence assay” value in data set [1] is listed as “can activate calcium response”. Also, the “effect on A. suum muscle strips” value in data set [2] was “inhibitory effects”.

Turning to “APEASPLIRF [C. elegans RFamide peptide of gene flp-13; P3 and P5 are repeated copies]”, the “effect on A. suum muscle strips” value in data set [2] was “inhibitory effects”.

Consider “ASPSAPLIRF [C. elegans RFamide peptide of gene flp-13]”, for which, in data set [1], the “activate calcium response via NPR-22 using the fluorescence assay” value was “can activate calcium response”.

For the sequence “ASSAPLIRF [C. elegans RFamide peptide of gene flp-13]”, the “activate calcium response via NPR-22 using the fluorescence assay” value in data set [1] is listed as “can activate calcium response”.

Regarding “SAAAPLIRF [C. elegans RFamide peptide of gene flp-13]”, the “activate calcium response via NPR-22 using the fluorescence assay” value in data set [1] is reported as “can activate calcium response”.

In the case of “SPSAVPLIRF [C. elegans RFamide peptide of gene flp-13]”, the “activate calcium response via NPR-22 using the fluorescence assay” value in data set [1] is recorded as “can activate calcium response”. In addition, the “effect on A. suum muscle strips” value in data set [2] is listed as “excitatory effect”.
